This series addresses T1, TOP3A 917 (truncated) (Homo sapiens, UniProt Q13472 16-917).
T1 sequence: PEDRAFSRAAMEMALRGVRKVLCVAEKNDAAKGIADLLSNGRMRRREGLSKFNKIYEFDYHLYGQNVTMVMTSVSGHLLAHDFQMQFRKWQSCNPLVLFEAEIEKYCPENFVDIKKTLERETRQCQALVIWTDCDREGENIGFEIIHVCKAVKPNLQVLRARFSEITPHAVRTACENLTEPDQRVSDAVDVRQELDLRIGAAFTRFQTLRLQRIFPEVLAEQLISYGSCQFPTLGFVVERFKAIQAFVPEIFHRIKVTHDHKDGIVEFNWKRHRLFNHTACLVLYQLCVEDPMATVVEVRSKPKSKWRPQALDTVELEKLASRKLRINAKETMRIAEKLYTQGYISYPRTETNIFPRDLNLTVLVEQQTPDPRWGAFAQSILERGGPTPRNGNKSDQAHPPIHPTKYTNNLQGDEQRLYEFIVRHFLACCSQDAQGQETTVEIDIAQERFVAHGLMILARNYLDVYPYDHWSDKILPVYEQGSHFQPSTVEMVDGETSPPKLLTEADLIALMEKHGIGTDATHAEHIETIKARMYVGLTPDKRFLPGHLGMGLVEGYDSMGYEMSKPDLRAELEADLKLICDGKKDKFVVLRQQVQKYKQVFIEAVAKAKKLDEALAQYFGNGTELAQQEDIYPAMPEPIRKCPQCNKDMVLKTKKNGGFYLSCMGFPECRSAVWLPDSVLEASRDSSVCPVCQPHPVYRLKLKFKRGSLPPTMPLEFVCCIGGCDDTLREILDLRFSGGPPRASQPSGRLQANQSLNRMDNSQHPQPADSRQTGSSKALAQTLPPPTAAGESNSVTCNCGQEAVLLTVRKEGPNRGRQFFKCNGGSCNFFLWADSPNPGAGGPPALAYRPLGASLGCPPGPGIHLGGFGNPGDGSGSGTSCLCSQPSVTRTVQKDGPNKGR
The series can be described thus: EMSA; no Mg2+ added; higher binding than full-length; 25 mM HEPES pH 7.5, 70 mM NaCl, 100 ug/ml BSA, 1 mM DTT, 10% glycerol, 10 fmol DNA in 20 ul, 37 C 15 min; 8% PAGE in 0.5x TBE at 4 C. As to conditions: protein: recombinant; tags: 6xHis removed with TEV (cloning section: N-terminal TEV-cleavable 6xHis; purification section says C-terminal 6xHis); label: 5' 32P; single strand.

From article PMC12585908, “Proteolytic cleavage activates the mitochondrial isoform of TOP3A” come the findings set out here.

With TGTTATTATTATGTCCTACAAGCATTAATTAATTAACACA (ssDNA) [EMSA substrate (40 nt ssDNA)], the binding result is listed as “binds”.
